Source: PMC4537050, “A long pentraxin-3-derived pentapeptide for the therapy of FGF8b-driven steroid hormone-regulated cancers” (Oncotarget, 2015)

Assays:
Test in all cases: SPR; BIAcore X-100; FGF8b (20 μg/ml in 10 mM sodium acetate, pH 6.0) or other FGFs (10 mM sodium acetate at optimal pH) immobilised on a CM5 sensor chip by EDC/NHS; peptide injected (ARPCA 8 μM to 2000 μM), 4 min at 30 μl/min, 10 min dissociation, in HBS; equilibrium values fitted with the Langmuir equation for monovalent binding
Conditions in all cases: both partners purified
FGF5 = target: T1, FGF5 (UniProt P12034 21-268)
T1 construct: fibroblast growth factor 5 (FGF5)
T1 sequence (looked up): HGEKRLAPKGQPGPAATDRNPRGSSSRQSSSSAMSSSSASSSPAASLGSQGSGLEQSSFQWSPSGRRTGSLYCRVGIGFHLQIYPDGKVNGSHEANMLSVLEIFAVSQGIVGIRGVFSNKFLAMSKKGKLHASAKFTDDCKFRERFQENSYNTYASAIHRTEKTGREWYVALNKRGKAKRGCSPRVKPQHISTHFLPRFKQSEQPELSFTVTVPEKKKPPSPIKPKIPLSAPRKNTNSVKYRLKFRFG

FGF7 = target: T2, FGF7 (UniProt P21781 32-194)
T2 construct: fibroblast growth factor 7 (FGF7)
T2 sequence (looked up): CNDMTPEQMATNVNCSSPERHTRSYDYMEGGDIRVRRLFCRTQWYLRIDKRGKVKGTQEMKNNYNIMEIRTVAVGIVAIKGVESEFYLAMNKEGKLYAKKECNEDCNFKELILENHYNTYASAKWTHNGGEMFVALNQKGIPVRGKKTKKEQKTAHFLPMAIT

FGF22 = target: T3, FGF22 (UniProt Q9HCT0 23-170)
T3 construct: fibroblast growth factor 22 (FGF22)
T3 sequence (looked up): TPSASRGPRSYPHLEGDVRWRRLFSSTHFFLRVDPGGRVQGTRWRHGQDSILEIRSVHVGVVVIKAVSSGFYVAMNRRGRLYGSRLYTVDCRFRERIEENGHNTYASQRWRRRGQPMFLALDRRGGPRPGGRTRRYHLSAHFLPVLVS

FGF17 = target: T4, FGF17 (UniProt O60258 23-216)
T4 construct: fibroblast growth factor 17 (FGF17)
T4 sequence (looked up): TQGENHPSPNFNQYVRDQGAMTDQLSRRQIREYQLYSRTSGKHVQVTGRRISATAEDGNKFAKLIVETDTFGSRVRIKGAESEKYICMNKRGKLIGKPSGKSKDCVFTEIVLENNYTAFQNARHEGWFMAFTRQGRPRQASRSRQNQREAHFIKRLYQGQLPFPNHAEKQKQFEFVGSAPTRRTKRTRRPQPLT

FGF18 = target: T5, FGF18 (UniProt O76093 28-207)
T5 construct: fibroblast growth factor 18 (FGF18)
T5 sequence (looked up): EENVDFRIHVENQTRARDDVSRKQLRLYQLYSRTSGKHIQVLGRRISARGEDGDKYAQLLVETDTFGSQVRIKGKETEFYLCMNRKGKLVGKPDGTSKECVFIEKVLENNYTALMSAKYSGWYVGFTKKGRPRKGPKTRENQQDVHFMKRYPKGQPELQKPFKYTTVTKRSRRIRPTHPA

FGF16 = target: T6, FGF16 (UniProt O43320 1-207)
T6 construct: fibroblast growth factor 16 (FGF16)

FGF20 = target: T7, FGF20 (UniProt Q9NP95 1-211)
T7 construct: fibroblast growth factor 20 (FGF20)
T7 sequence (Q9NP95 whole entry): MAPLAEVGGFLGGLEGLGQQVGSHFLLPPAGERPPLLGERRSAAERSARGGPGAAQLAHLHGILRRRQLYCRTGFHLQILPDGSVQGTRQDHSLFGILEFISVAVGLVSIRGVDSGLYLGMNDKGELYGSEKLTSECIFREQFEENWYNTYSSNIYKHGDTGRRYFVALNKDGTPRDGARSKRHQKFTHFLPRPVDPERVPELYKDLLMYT

Kd (FGF5): 299 µM | Kd (FGF7): 885 µM | Kd (FGF22): 129 µM | Kd (FGF17): 476 µM | Kd (FGF18): 26 µM | Kd (FGF16): 112 µM | Kd (FGF20): 264 µM
B1: Ac-ARPCA-NH2, acetylated pentapeptide corresponding to PTX3(100-104) (peptide)
peptide: Ac-ARPCA-NH2
notes: long pentraxin-3 (PTX3), residues 100-104 of the N-terminal extension; source: synthetic peptide, provided by R. Longhi and A. Gori (CNR, Milano, Italy)
